Laboratory results taken from patent US20160000936A1.

Molecular target: murine IL-17 (mouse) (UniProt Q62386)
Assay: assay not described; table titled 'Source And Binding Information'

Chain of murine IL-17 (mouse) (Q62386 26-158 limits assumed): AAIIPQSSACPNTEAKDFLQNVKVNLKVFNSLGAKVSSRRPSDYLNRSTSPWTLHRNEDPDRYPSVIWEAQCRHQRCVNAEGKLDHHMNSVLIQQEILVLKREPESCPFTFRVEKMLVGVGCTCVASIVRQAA

IC50: 0.7 nM
Substance: anti-murine IL-17 antibody MAB421
